According to paper PMC11196586, “Molecular insight into interactions between the Taf14, Yng1 and Sas3 subunits of the NuA3 complex” (Nature Communications, 2024):

How the values were obtained:
[1] = assay type: physicochemical, Saccharomyces cerevisiae
From the text: The S. cerevisiae Taf14FL (aa 1-244) (UniProt code P35189), Taf14YEATS (aa 1-137), Taf14ET (aa 168-243) and Yng1EBM-PHD (aa 100-219) (UniProt code Q08465) were cloned into pGEX-6P1, pET22b or pCIOX vectors. The F220R, I222R and L224R mutants of Taf14ET were generated using QuikChange II site directed mutagenesis kit (Agilent). Sequences were confirmed by DNA sequencing. All proteins were expressed in Escherichia coli Rosetta-2 (DE3) pLysS cells grown in either Terrific Broth, Luria Broth or in minimal media supplemented with ^15NH4Cl (Sigma). Protein production was induced with 0.3 mM IPTG for 18 h at 16 °C. Bacteria were harvested by centrifugation and lysed by sonication. GST-fusion proteins were purified on glutathione agarose 4B beads (Thermo Fisher Sci). The GST-tag was cleaved with either PreScission or tobacco etch virus (TEV) protease. After cleavage, Taf14FL and Taf14YEATS retained the pGEX-6P1vector-derived residues Gly and Pro. His-fusion proteins were incubated with Ni-NTA resin (ThermoFisher), washed and eluted with a gradient of imidazole. When necessary, removal of the His-tag was completed during an overnight dialysis, while incubating the protein with ULP1 protease. […]
Nuclear magnetic resonance experiments were performed at 298 K on Varian INOVA 900 MHz (for Taf14FL) and 600 MHz (for Taf14ET and Taf14YEATS) spectrometers equipped with cryogenic probes as described. […] NMR data were processed and analyzed using NMRPipe as previously described, with the apparent Kds being determined by a nonlinear least-squares analysis and a 1:1 stoichiometry in GraphPad Prism using the equation:2 Δδ=ΔδmaxL+P+Kd−L+P+Kd^2−4PL/2P Where [L] is the concentration of the peptide, [P] is concentration of the protein, Δδ is the observed chemical shift change, and Δδ max is the normalized chemical shift change at saturation. Normalized chemical shift changes were calculated using the equation δ=ΔδH^2+(ΔδN/5)^2 (3), where Δδ is the change in chemical shift in parts per million (ppm).

[2] = molecular target: T1, Taf14FL (full length Taf14, aa 1-244) (S. cerevisiae, UniProt P35189 1-244); assay: other fluorescence titration; tryptophan fluorescence, 25 °C; 1 μM Taf14ET or Taf14FL, increasing peptide; 50 mM Tris-HCl pH 6.8 or 7.5, 150 mM NaCl, 1 mM DTT or 0.2 mM TCEP; excitation 295 nm; apparent Kd, 1:1 stoichiometry; details: both partners purified
T1 construct: Taf14, S. cerevisiae, UniProt P35189, aa 1-244; uniformly 15N-labelled for NMR; also called transcription initiation factor subunit 14
T1 sequence (looked up): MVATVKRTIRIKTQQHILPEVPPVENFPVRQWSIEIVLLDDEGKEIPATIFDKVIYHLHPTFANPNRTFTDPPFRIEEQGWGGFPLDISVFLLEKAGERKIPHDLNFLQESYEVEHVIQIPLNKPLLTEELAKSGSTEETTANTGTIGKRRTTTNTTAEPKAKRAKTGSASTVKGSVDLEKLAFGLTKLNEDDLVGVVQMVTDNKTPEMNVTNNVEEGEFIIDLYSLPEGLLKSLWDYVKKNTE

[3] = molecular target: T2, Taf14ET (extra-terminal domain of Taf14, aa 168-243) (S. cerevisiae, UniProt P35189 168-243); assay: as above; details: both partners purified
T2 construct: Taf14, S. cerevisiae, UniProt P35189, ET domain, aa 168-243; Uniformly 15N-labelled for NMR; also called ET domain of Taf14
T2 sequence (looked up): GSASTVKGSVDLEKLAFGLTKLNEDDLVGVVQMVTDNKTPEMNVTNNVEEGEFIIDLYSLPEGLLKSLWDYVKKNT

His-Taf14FL (aa 1-244) = molecular target: T3, His-Taf14FL (aa 1-244) (S. cerevisiae, UniProt P35189 1-244, labeled using a His-Tag Labeling Kit RED-tris-NTA (2nd Generation)); assay: MST; His-tagged Taf14 labeled with RED-tris-NTA, kept at 10 nM; unlabeled peptide added stepwise; 20 mM Tris-HCl pH 7.5, 150 mM NaCl, 2.5 mM DTT or 0-0.2 mM TCEP; apparent Kd, 1:1 stoichiometry; details: both partners purified
T3 construct: Taf14, S. cerevisiae, UniProt P35189, aa 1-244; His-tagged form used for MST; source: E. coli Rosetta-2 (DE3) pLysS, purified (Ni-NTA, SEC)
T3 sequence (looked up): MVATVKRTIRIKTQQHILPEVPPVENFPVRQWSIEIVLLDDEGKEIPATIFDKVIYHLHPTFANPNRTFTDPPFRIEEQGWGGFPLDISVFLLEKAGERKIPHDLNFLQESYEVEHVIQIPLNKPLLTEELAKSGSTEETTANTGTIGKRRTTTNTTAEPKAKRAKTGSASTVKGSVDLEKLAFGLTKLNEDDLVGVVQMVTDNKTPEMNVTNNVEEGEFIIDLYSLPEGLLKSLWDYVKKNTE

[4] = molecular target: the molecule itself; assay: crystal structure; Taf14ET co-crystallized with Yng1EBM peptide (molar ratio 1:2.5); 40% PEG 400, 0.1 M Tris pH 8.5, 0.2 M LiSO4; 1.9 Å
[5] = molecular target: T1, Taf14FL (full length Taf14, aa 1-244); assay: other fluorescence titration; tryptophan fluorescence of Taf14FL with Yng1EBM in the presence of H3K9cr peptide at a 1:10 Taf14FL:H3K9cr molar ratio; apparent Kd, 1:1 stoichiometry; details: both partners purified
[6] = molecular target: T2, Taf14ET (extra-terminal domain of …); assay: NMR titration; 1H,15N HSQC of 0.05-0.2 mM 15N-labeled Taf14 proteins, 298 K, unlabeled peptide or Yng1EBM-PHD added; Tris-HCl or PBS, pH 6.6-7.5; apparent Kd from CSPs, 1:1 stoichiometry; details: both partners purified
[7] = molecular target: T4, Taf14FL (full length Taf14, aa 1-244) (S. cerevisiae), P35189; assay: mass photometry; Taf14FL with Yng1EBM (1:1 molar ratio), final 100 nM, room temperature, 50 mM Tris pH 7.5, 150 mM NaCl, 1 mM TCEP; details: remark: other sources report otherwise
T4 chain: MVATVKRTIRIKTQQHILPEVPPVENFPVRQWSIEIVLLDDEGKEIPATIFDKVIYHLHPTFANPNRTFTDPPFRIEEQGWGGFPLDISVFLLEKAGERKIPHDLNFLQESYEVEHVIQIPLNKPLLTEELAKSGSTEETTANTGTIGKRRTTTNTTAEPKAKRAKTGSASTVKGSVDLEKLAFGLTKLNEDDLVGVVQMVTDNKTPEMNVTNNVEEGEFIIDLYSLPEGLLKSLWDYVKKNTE

B1: F220R Taf14ET: F220R mutant of Taf14ET (aa 168-243 of S. cerevisiae Taf14) (protein, UniProt P35189 168-243, looked up, variant F220R)
chain: GSASTVKGSVDLEKLAFGLTKLNEDDLVGVVQMVTDNKTPEMNVTNNVEEGERIIDLYSLPEGLLKSLWDYVKKNT
modifications: ET domain (aa 168-243)
stability of mutated Taf14ET protein [1]: unstable

B2: Yng1EBM peptide (aa 113-124 of Yng1), Ac-EPKLLLKINLKK-NH2 (peptide)
peptide: Ac-EPKLLLKINLKK-NH2
notes: also called Yng1 peptide; source: synthetic peptide (Synpeptide)
Kd [2]: 1.1 µM
Kd [3]: 0.6 µM
Kd (His-Taf14FL (aa 1-244)): 1200 nM
stoichiometry N [4]: 2
Kd [5]: 900 nM

B3: L116D Yng1EBM peptide (aa 113-124 of Yng1) (peptide, UniProt Q08465 113-124, looked up)
peptide: EPKDLLKINLKK
notes: The wild-type peptide is Ac-...-NH2; source: peptide
Kd [6]: 180 µM

B4: L118D Yng1EBM peptide (aa 113-124 of Yng1) (peptide, UniProt Q08465 113-124, looked up)
peptide: EPKLLDKINLKK
notes: as for B3
Kd [6]: 430 µM

B5: Taf14FL (full length Taf14, aa 1-244), P35189 1-244 (natural protein)
chain: MVATVKRTIRIKTQQHILPEVPPVENFPVRQWSIEIVLLDDEGKEIPATIFDKVIYHLHPTFANPNRTFTDPPFRIEEQGWGGFPLDISVFLLEKAGERKIPHDLNFLQESYEVEHVIQIPLNKPLLTEELAKSGSTEETTANTGTIGKRRTTTNTTAEPKAKRAKTGSASTVKGSVDLEKLAFGLTKLNEDDLVGVVQMVTDNKTPEMNVTNNVEEGEFIIDLYSLPEGLLKSLWDYVKKNTE
stoichiometry N [7]: 2

B6: Sas3EBM peptide (aa 111-122 of Sas3), Ac-SEELKVRIKYDS-NH2 (peptide)
peptide: Ac-SEELKVRIKYDS-NH2
notes: Sas3 (something about silencing 3), catalytic subunit of the yeast NuA3 complex, aa 111-122; also called Sas3 peptide; source: synthetic peptide (Synpeptide)
Kd [2]: 21 µM
Kd [3]: 18 µM

B7: L114D Sas3EBM peptide (aa 111-122 of Sas3) (peptide, UniProt P34218 111-122, looked up)
peptide: SEEDKVRIKYDS
notes: Sas3, yeast, aa 111-122 with L114D; The wild-type peptide is Ac-...-NH2; source: peptide
Kd [6]: 540 µM
